# Measurements reported in paper PMC4922585.
# Legend:
# [1] = target: Wild-type TF-FVIIa complex on THP-1 cells (UniProt P13726)
# [2] = target: TF G164A-FVIIa complex on THP-1 cells (UniProt P13726)
# [3] = target: TF S160A-FVIIa complex on THP-1 cells (UniProt P13726)
# [4] = target: Wild-type TF-FVIIa complex on THP-1 cells (UniProt P13726); remark: listed apart in the source
# [5] = target: TFLBR-FVIIa complex on THP-1 cells (UniProt P13726)
substance,measurement,setting,value
Purified human factor X (natural protein),Km of FX activation by TF-FVIIa on THP-1 cells (Michaelis-Menten kinetics),[1],0.134 µM
same,Km of FX activation by TF-FVIIa on THP-1 cells (Michaelis-Menten kinetics),[2],0.191 µM
same,Km of FX activation by TF-FVIIa on THP-1 cells (Michaelis-Menten kinetics),[3],0.117 µM
same,"Km of FX activation by TF-FVIIa on THP-1 cells treated with HgCl2 (100 μM, 5 min) (FVIIa 10 nM, FX 25 to 1000 nM)",[4],0.137 µM
same,"Km of FX activation by TF-FVIIa on THP-1 cells treated with control vehicle (FVIIa 10 nM, FX 25 to 1000 nM)",[4],0.187 µM
same,"Km of FX activation by TF-FVIIa on THP-1 cells treated with HgCl2 (100 μM, 5 min) (FVIIa 10 nM, FX 25 to 1000 nM)",[5],0.223 µM
same,"Km of FX activation by TF-FVIIa on THP-1 cells treated with control vehicle (FVIIa 10 nM, FX 25 to 1000 nM)",[5],0.196 µM
